Data reported in patent US20100068215A1 (published 2010).
Substitutions are numbered along the chain they refer to. Names and notes keep the numbering of the source. Like-named read-outs stand apart in the source and are kept apart here.

T1: Activin A (UniProt P08476 311-426)
T1 sequence (looked up): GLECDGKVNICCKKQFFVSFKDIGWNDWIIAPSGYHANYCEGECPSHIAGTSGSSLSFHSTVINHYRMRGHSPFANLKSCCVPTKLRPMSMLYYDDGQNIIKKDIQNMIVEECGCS

T2: GDF8 (UniProt O14793 267-375)
T2 construct: also called myostatin; Growth and Differentiation Factor-8
T2 sequence (looked up): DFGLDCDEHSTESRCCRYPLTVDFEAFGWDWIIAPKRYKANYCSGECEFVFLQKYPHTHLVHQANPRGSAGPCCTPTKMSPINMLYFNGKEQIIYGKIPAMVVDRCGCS

T3: Activin B (UniProt P09529 293-407)
T3 sequence (looked up): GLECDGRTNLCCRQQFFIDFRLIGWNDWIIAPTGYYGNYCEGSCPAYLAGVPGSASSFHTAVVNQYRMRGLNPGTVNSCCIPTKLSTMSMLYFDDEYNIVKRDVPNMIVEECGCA

B1: ActRIIB(20-128)-hFc (Fc fusion, not shown: a dimerising Fc or GST)
chain: GRGEAETRECIYYNANWELERTNQSGLERCEGEQDKRLHCYASWRNSSGTIELVKKGCWLDDFNCYDRQECVATEENPQVYFCCCEGNFCNERFTHLPEAGGPEVTYEPGGG
B2: GDF11 (ligand, UniProt O95390 299-407, looked up)
chain: NLGLDCDEHSSESRCCRYPLTVDFEAFGWDWIIAPKRYKANYCSGQCEYMFMQKYPHTHLVQQANPRGSAGPCCTPTKMSPINMLYFNDKQQIIYGKIPGMVVDRCGCS
notes: also called Growth and Differentiation Factor-11; BMP11
B3: ActRIIB(20-131)-hFc (Fc fusion, not shown: a dimerising Fc or GST)
chain: GRGEAETRECIYYNANWELERTNQSGLERCEGEQDKRLHCYASWRNSSGTIELVKKGCWLDDFNCYDRQECVATEENPQVYFCCCEGNFCNERFTHLPEAGGPEVTYEPPPTGGG
B4: ActRIIB(R64K 20-129)-hFc (Fc fusion)
chain: GRGEAETRECIYYNANWELERTNQSGLERCEGEQDKRLHCYASWKNSSGTIELVKKGCWLDDFNCYDRQECVATEENPQVYFCCCEGNFCNERFTHLPEAGGPEVTYEPPGGG
notes: not shown: human Fc domain (hFc)
B5: ActRIIB(21-131)-hFc (Fc fusion, not shown: a dimerising Fc or GST)
chain: RGEAETRECIYYNANWELERTNQSGLERCEGEQDKRLHCYASWRNSSGTIELVKKGCWLDDFNCYDRQECVATEENPQVYFCCCEGNFCNERFTHLPEAGGPEVTYEPPPTGGG
B6: ActRIIB(20-132)-hFc (Fc fusion, not shown: a dimerising Fc or GST)
chain: GRGEAETRECIYYNANWELERTNQSGLERCEGEQDKRLHCYASWRNSSGTIELVKKGCWLDDFNCYDRQECVATEENPQVYFCCCEGNFCNERFTHLPEAGGPEVTYEPPPTAGGG
B7: ActRIIB(23-131)-hFc (Fc fusion, not shown: a dimerising Fc or GST)
chain: EAETRECIYYNANWELERTNQSGLERCEGEQDKRLHCYASWRNSSGTIELVKKGCWLDDFNCYDRQECVATEENPQVYFCCCEGNFCNERFTHLPEAGGPEVTYEPPPTGGG
B8: ActRIIB(A24N 20-134)-hFc (Fc fusion)
chain: GRGENETRECIYYNANWELERTNQSGLERCEGEQDKRLHCYASWRNSSGTIELVKKGCWLDDFNCYDRQECVATEENPQVYFCCCEGNFCNERFTHLPEAGGPEVTYEPPPTAPTGGG
notes: also called the A24N variant; not shown: human Fc domain (hFc)
B9: ActRIIB(K74A 20-134)-hFc (Fc fusion)
chain: B8 chain with N5A, K55A
notes: as for B4
B10: ActRIIB(P129S, P130R 20-134)-hFc (Fc fusion)
chain: B8 chain with N5A, P110S, P111R
notes: kept as two molecules; not shown: human Fc domain (hFc)
B11: ActRIIB(R64K 20-134)-hFc (Fc fusion)
chain: B8 chain with N5A, R45K
notes: as for B4
B12: ActRIIB(L79 25-131)-hFc (Fc fusion)
chain: ETRECIYYNANWELERTNQSGLERCEGEQDKRLHCYASWRNSSGTIELVKKGCWLDDFNCYDRQECVATEENPQVYFCCCEGNFCNERFTHLPEAGGPEVTYEPPPTGGG
notes: also called ActRIIB(25-131)-hFc; not shown: human Fc domain (hFc)
B13: ActRIIB(24-131)-hFc (Fc fusion, not shown: a dimerising Fc or GST)
chain: AETRECIYYNANWELERTNQSGLERCEGEQDKRLHCYASWRNSSGTIELVKKGCWLDDFNCYDRQECVATEENPQVYFCCCEGNFCNERFTHLPEAGGPEVTYEPPPTGGG
B14: ActRIIB(22-131)-hFc (Fc fusion, not shown: a dimerising Fc or GST)
chain: GEAETRECIYYNANWELERTNQSGLERCEGEQDKRLHCYASWRNSSGTIELVKKGCWLDDFNCYDRQECVATEENPQVYFCCCEGNFCNERFTHLPEAGGPEVTYEPPPTGGG
B15: ActRIIB(20-134)-hFc (Fc fusion)
chain: GRGEAETRECIYYNANWELERTNQSGLERCEGEQDKRLHCYASWRNSSGTIELVKKGCWLDDFNCYDRQECVATEENPQVYFCCCEGNFCNERFTHLPEAGGPEVTYEPPPTAPTGGGTHTCPPCPAPELLGGPSVFLFPPKPKDTLMISRTPEVTCVVVDVSHEDPEVKFNWYVDGVEVHNAKTKPREEQYNSTYRVVSVLTVLHQDWLNGKEYKCKVSNKALPVPIEKTISKAKGQPREPQVYTLPPSREEMTKNQVSLTCLVKGFYPSDIAVEWESNGQPENNYKTTPPVLDSDGSFFLYSKLTVDKSRWQQGNVFSCSVMHEALHNHYTQKSLSLSPGK

Tests used:
Activin A [1] = biological target: T1, Activin A; experiment: cell-based or functional assay
GDF11 [2] = biological target: B2; experiment: cell-based or functional assay
ActRIIB(L79 25-131)-hFc = biological target: B12; experiment: Biacore, steady-state affinity fit
Method: (§1) The affinity of GDF Traps and other ActRIIB-hFc proteins for several ligands was evaluated in vitro with a Biacore™ instrument. Kd values were obtained by steady-state affinity fit due to the very rapid association and dissociation of the complex, which prevented accurate determination of kₒₙ and koff.

Activin A [3] = biological target: T1, Activin A; experiment: Biacore; ActRIIB-Fc captured by anti-hFc antibody, ligand injected
Method: (§2) Binding of certain ActRIIB-Fc proteins and GDF Traps to ligands was tested in a BiaCore™ assay.
(§3) The ActRIIB-Fc variants or wild-type protein were captured onto the system using an anti-hFc antibody. Ligands were injected and flowed over the captured receptor proteins.

GDF8 = biological target: T2, GDF8; experiment: as above
Method: as §2, §3

GDF11 [4] = biological target: B2; experiment: as above
Method: as §2, §3

Activin B = biological target: T3, Activin B; experiment: Biacore, steady-state affinity fit
Method: as §1

Activin A [5] = biological target: T1, Activin A; experiment: Biacore, steady-state affinity fit
Method: as §1

GDF11 [6] = biological target: B2; experiment: Biacore, steady-state affinity fit
Method: as §1

Row | Binder | IC50 (ng/mL), A-204 reporter gene assay, conditioned media (Activin A [1]) | IC50 (ng/mL), A-204 reporter gene assay, conditioned media (GDF11 [2]) | Kd (Activin A [3]) | koff (Activin A [3]) | kon (Activin A [3]) | Kd (GDF8) | koff (GDF8) | further results
1 | B1 | 158 ng/mL | 130 ng/mL | – | – | – | – | – | –
2 | B2 | – | – | – | – | – | – | – | Kd (ActRIIB(L79 25-131)-hFc): 31 pM
3 | B3 | 201 ng/mL | 183 ng/mL | – | – | – | – | – | IC50 (ng/mL), A-204 reporter gene assay, conditioned media (Activin A [1]; record 2): 44 ng/mL; IC50 (ng/mL), A-204 reporter gene assay, conditioned media (GDF11 [2]; record 2): 120 ng/mL
4 | B4 | – | – | 84.1 pM | 0.000628 s⁻¹ | 7.46e+06 M⁻¹ s⁻¹ | 2150 pM | 0.000209 s⁻¹ | –
5 | B5 | 325 ng/mL | 121 ng/mL | – | – | – | – | – | –
6 | B6 | 32 ng/mL | 87 ng/mL | – | – | – | – | – | –
7 | B7 | 43 ng/mL | 60 ng/mL | – | – | – | – | – | –
8 | B8 | – | – | 104 pM | 0.000346 s⁻¹ | 3.34e+06 M⁻¹ s⁻¹ | – | – | Kd (GDF11 [4]): 51.9 pM; koff (GDF11 [4]): 6.35e-05 s⁻¹
9 | B9 | – | – | – | – | – | 71.8 pM | 2.03e-05 s⁻¹ | –
10 | B10 | – | – | 83.1 pM | 0.000417 s⁻¹ | 5.02e+06 M⁻¹ s⁻¹ | 1670 pM | 0.00018 s⁻¹ | –
11 | B11 | – | – | 47.6 pM | 0.000325 s⁻¹ | 6.82e+06 M⁻¹ s⁻¹ | 210 pM | 4.71e-05 s⁻¹ | Kd (GDF11 [4]): 35.6 pM; koff (GDF11 [4]): 2.41e-05 s⁻¹
12 | B12 | – | – | – | – | – | – | – | Kd (Activin B): 12 pM; Kd (Activin A [5]): 18 pM
13 | B13 | 105 ng/mL | 69 ng/mL | – | – | – | – | – | –
14 | B14 | 100 ng/mL | 71 ng/mL | – | – | – | – | – | –
15 | B15 | 22 ng/mL | 45 ng/mL | 26.8 pM | 0.000159 s⁻¹ | 5.94e+06 M⁻¹ s⁻¹ | 93.5 pM | 3.45e-05 s⁻¹ | Kd (GDF11 [4]): 84.2 pM; koff (GDF11 [4]): 0.000113 s⁻¹; Kd (Activin B): 12 pM; Kd (Activin A [5]): 16 pM; Kd (GDF11 [6]): 36 pM
